Experimental data: paper PMC5567221, “The open architecture of HD-PTP phosphatase provides new insights into the mechanism of regulation of ESCRT function” (Scientific Reports, 2017)

T1: HD-PTP Bro1-CC-PRR (residues 1-738) (UniProt Q9H3S7 1-738)
T1 construct: His Domain Protein Tyrosine Phosphatase (HD-PTP), Bro1 and coiled-coil domains plus the proximal region of the PRR (714-738), residues 1-738; cloned into pET28a (NdeI/XhoI); immobilised by the His6 tag on the HTE chip; also called HD-PTP_(Bro1-CC-PRR (+tag)); source: E. coli BL-21(DE3), purified (Nickel beads, MonoQ anion exchange, Superdex200 SEC); not shown: His6, N-terminal, kept
T1 sequence (looked up): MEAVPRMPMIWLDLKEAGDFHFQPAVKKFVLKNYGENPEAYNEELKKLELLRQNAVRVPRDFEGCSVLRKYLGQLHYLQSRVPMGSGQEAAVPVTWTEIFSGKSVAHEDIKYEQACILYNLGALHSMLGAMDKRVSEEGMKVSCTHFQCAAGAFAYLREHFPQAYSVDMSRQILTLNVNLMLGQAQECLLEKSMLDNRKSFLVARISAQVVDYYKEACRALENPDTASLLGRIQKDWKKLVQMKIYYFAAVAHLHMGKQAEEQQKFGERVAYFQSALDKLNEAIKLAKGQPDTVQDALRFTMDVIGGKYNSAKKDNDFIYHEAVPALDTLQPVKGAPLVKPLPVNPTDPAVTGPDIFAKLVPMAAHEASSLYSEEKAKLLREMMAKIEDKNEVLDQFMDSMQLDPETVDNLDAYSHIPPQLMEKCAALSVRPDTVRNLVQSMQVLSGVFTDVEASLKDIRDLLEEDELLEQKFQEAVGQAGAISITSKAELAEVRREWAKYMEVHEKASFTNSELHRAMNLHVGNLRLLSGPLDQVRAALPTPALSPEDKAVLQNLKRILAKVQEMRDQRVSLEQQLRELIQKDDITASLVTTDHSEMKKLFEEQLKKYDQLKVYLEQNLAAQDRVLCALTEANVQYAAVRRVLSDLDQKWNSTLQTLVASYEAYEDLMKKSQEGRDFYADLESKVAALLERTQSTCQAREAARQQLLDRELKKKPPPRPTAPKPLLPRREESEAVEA

T2: HD-PTP Bro1 domain (residues 1-361) (UniProt Q9H3S7 1-361)
T2 construct: His Domain Protein Tyrosine Phosphatase (HD-PTP), Bro1 domain, residues 1-361; cloned into pNIC-28a-Bsa4; No tag cleavage is described for the His6-tagged proteins; The vector pNIC28-Bsa4 probably adds an N-terminal His6 tag with a TEV site (surmise); also called His Domain Protein Tyrosine Phosphatase Bro1; source: E. coli BL-21(DE3), purified (Nickel beads, MonoQ anion exchange, Superdex200 SEC)
T2 sequence (looked up): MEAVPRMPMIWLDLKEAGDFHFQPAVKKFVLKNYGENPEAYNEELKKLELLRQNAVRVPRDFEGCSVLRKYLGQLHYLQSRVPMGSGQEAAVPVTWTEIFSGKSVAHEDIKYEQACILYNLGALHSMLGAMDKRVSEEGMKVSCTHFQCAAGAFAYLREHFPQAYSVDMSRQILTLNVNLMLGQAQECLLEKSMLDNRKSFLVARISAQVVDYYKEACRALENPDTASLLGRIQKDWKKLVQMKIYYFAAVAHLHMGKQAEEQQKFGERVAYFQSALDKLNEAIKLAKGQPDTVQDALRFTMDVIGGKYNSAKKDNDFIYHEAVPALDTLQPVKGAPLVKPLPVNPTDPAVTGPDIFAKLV


Experiments:
Details in all cases: both partners purified
[1] = target: T1, HD-PTP Bro1-CC-PRR (residues 1-738); test: SPR; ProteOn XPR36; His6-tagged HD-PTP Bro1-CC-PRR immobilised on an HTE chip (5000-8000 RU); synthetic peptides as analytes; equilibrium binding model; 25 °C; 10 mM HEPES pH 7.4, 150 mM NaCl, 0.05% Tween-20
[2] = target: T2, HD-PTP Bro1 domain (residues 1-361); test: SPR; ProteOn XPR36; GST-FL-CHMP4B captured on a GLC chip derivatised with anti-GST antibody (3000-4000 RU); HD-PTP proteins as analytes; equilibrium binding model; 25 °C; 10 mM HEPES pH 7.4, 150 mM NaCl, 0.05% Tween-20
[3] = target: T1, HD-PTP Bro1-CC-PRR (residues 1-738); test: as above

Row | Kd [1] [µM] | Kd [2] [µM] | Kd [3] [µM] | Binder
1 | 30.9 ± 0.2 | – | – | KKKEEEDDDMKELENWAGSM (CHMP4B, C-terminal residues 205-224; also called peptide from the C-terminus of CHMP4B; source: synthetic peptide (Generon Ltd, UK)) [CHMP4B peptide (residues 205-224)]
2 | 57.5 ± 3.1 | – | – | SNIKSLSFPKLDSDDSNQKT (UBAP1 (ESCRT-I subunit), central region, residues 261-280; also called central region of UBAP1; source: synthetic peptide (Generon Ltd, UK)) [UBAP1 peptide (residues 261-280)]
3 | – | 4.88 ± 0.3 | 1.1 ± 0.1 | GST-tagged full length CHMP4B (natural protein, UniProt Q9H444 1-224, looked up, CHMP4B (ESCRT-III subunit), full length; Captured on the chip by an anti-GST antibody; also called FL-CHMP4B; source: E. coli C41, purified (GSTrap FF, glutathione elution)) MSVFGKLFGAGGGKAGKGGPTPQEAIQRLRDTEEMLSKKQEFLEKKIEQELTAAKKHGTKNKRAALQALKRKKRYEKQLAQIDGTLSTIEFQREALENANTNTEVLKNMGYAAKAMKAAHDNMDIDKVDELMQDIADQQELAEEISTAISKPVGFGEEFDEDELMAELEELEQEELDKNLLEISGPETVPLPNVPSIALPSKPAKKKEEEDDDMKELENWAGSM
